According to the RNAGym collection of RNA variant scans (doi:10.1093/molbev/msab373):

B1: Azoarcus group I ribozyme (parent)
chain: GUGCCUUGCGCCGGGAAACCACGCAAGGGAUGGUGUCAAAUUCGGCGAAACCUAAGCGCCCGCCCGGGCGUAUGGCAACGCCGAGCCAAGCUUCGGCGCCUGCGCCGAUGAAGGUGUAGAGACUAGACGGCACCCACCUAAGGCAAACGCUAUGGUGAAGGCAUAGUCCAGGGAGUGGCGAAAGUCACACAAACCGG

Variants of: B1
Assay: reverse-splicing fitness (ratio to wild type); higher = more active; in vitro selection; Mg2+ level not given
How it was run: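 An in vitro group I ribozyme library with randomized positions was T7-transcribed and gel-purified. In triplicate, 10 pmol RNA in EPPS pH 7.5 was reacted with 50 pmoles of a 30-nt RNA substrate for 1 h at 37 °C across several added MgCl2 levels (1–48 mM), then stopped with EDTA. Products were reverse transcribed from a substrate-complementary primer, PCR-amplified and sequenced (HiSeq 4000). Fitness is a variant's read proportion after selection over that before, normalised to wild type.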

| Variant | reverse-splicing fitness |
| --- | --- |
| C82U A145C C150G C169A | 0.00743 |
| C82U A145C C150G C169U | 0.00824 |
| C82U A145C C150G C169G | 0.00699 |
| C82U A145G C150A C169U U176G | 0.00508 |
| C82U A145G C150A C169U U176A | 0.0137 |
| C82U A145G C150A C169U U176C | 0.0152 |
| C82U A120U C150U U176A | 0.0245 |
| C82U A120U C150U U176G | 0.00728 |
| C82U A120U C150U U176C | 0.0451 |
| C82U A145G C150A C169A U176G | 0.00596 |
| C82U A145G C150A C169A U176A | 0.0196 |
| C82U A145G C150A C169A U176C | 0.0216 |
| C82U A145C C150U C169A | 0.00695 |
| C82U A145C C150U C169G | 0.00634 |
| C82U A145C C150U C169U | 0.00874 |
| C82U A120U C169A | 0.00227 |
| C82U A120U C169U | 0.00737 |
| C82U A120U C169G | 0.00592 |
| C82U A145G C150U | 0.527 |
| C82U A145G C150G | 0.0812 |
| C82U A145G C150A | 0.103 |
| C82U A120U U176G | 0.0137 |
| C82U A120U U176A | 0.0428 |
| C82U A120U U176C | 0.0796 |

| Variant | reverse-splicing fitness |
| --- | --- |
| C82U A145C C150U C169G U176A | 0.0158 |
| C82U A145C C150U C169G U176C | 0.00881 |
| C82U A145C C150U C169G U176G | 0.0047 |
| C82U A145G C150A C169G U176C | 0.0265 |
| C82U A145G C150A C169G U176G | 0.0053 |
| C82U A145G C150A C169G U176A | 0.0162 |
| C82U A145C C150U C169A U176C | 0.00467 |
| C82U A145C C150U C169A U176A | 0.00827 |
| C82U A145C C150U C169A U176G | 0.00518 |
| C82U A145G C150A U176C | 0.0964 |
| C82U A145G C150A U176A | 0.0793 |
| C82U A145G C150A U176G | 0.0228 |
| C82U A120U C150U C169G U176C | 0.00284 |
| C82U A120U C150U C169G U176G | 0.00155 |
| C82U A120U C150U C169G U176A | 0.0036 |
| C82U A120U C150U | 0.0886 |
| C82U A145G C169U U176C | 0.0131 |
| C82U A145G C169U U176G | 0.00391 |
| C82U A145G C169U U176A | 0.0137 |
| C82U A145C U176G | 0.141 |
| C82U A145C U176C | 0.449 |
| C82U A145C U176A | 0.38 |
| C82U A145G C150G C169G U176G | 0.00548 |
| C82U A145G C150G C169G U176C | 0.0124 |

| Variant | reverse-splicing fitness |
| --- | --- |
| C82U A145G C150G C169G U176A | 0.01 |
| C82U A145C C150G | 0.0813 |
| C82U A145C C150A | 0.0351 |
| C82U A145C C150U | 0.172 |
| C82U A145C C150G C169G U176A | 0.00879 |
| C82U A145C C150G C169G U176G | 0.00454 |
| C82U A145C C150G C169G U176C | 0.00649 |
| C82U A120U C150U C169U U176C | 0.0038 |
| C82U A120U C150U C169U U176G | 0.00209 |
| C82U A120U C150U C169U U176A | 0.00407 |
| C82U A145G U176A | 0.353 |
| C82U A145G U176C | 0.44 |
| C82U A120U C150G C169G U176C | 0.00212 |
| C82U A120U C150G C169G U176G | 0.0022 |
| C82U A145C C150A U176C | 0.0348 |
| C82U A145C C150A U176G | 0.0119 |
| C82U A145C C150A U176A | 0.031 |
| C82U A145C C169U U176G | 0.00457 |
| C82U A145C C169U U176A | 0.0118 |
| C82U A145C C169U U176C | 0.00956 |
| C82U A145G C150G C169A U176A | 0.0146 |
| C82U A145G C150G C169A U176C | 0.0125 |
| C82U A145G C150G C169A U176G | 0.00764 |
| C82U A145G C169A | 0.00962 |

| Variant | reverse-splicing fitness |
| --- | --- |
| C82U A145G C169G | 0.0106 |
| C82U A145G C169U | 0.0143 |
| C82U A120U C150U C169A U176G | 0.00208 |
| C82U A120U C150U C169A U176A | 0.00329 |
| C82U A120U C150U C169A U176C | 0.00192 |
| C82U A120U C169G U176A | 0.00252 |
| C82U A120U C169G U176G | 0.0015 |
| C82U A120U C169G U176C | 0.00306 |
| C82U A145C C150A C169U | 0.00854 |
| C82U A145C C150A C169A | 0.00751 |
| C82U A145C C150A C169G | 0.00677 |
| C82U A145G C169G U176G | 0.00452 |
| C82U A145G C169G U176A | 0.0184 |
| C82U A145G C169G U176C | 0.0258 |
| C82U A145C C169A | 0.00714 |
| C82U A145C C169G | 0.00966 |
| C82U A145C C169U | 0.0123 |
| C82U A145G C150G U176C | 0.0584 |
| C82U A145G C150G U176G | 0.0108 |
| C82U A145G C150G U176A | 0.0372 |
| C82U A145C C169A U176G | 0.00383 |
| C82U A145C C169A U176A | 0.00806 |
| C82U A145C C169A U176C | 0.00633 |
| C82U A145G C150G C169G | 0.00814 |

| Variant | reverse-splicing fitness |
| --- | --- |
| C82U A145G C150G C169A | 0.00942 |
| C82U A145G C150G C169U | 0.00979 |
| C82U A145G C150G C169U U176G | 0.00689 |
| C82U A145G C150G C169U U176A | 0.0125 |
| C82U A145G C150G C169U U176C | 0.0132 |
| C82U A145G C150U C169U U176C | 0.0134 |
| C82U A145G C150U C169U U176G | 0.00493 |
| C82U A145G C150U C169U U176A | 0.0142 |
| C82U A120U C150U C169G | 0.00457 |
| C82U A120U C150U C169U | 0.00548 |
| C82U A120U C150U C169A | 0.00404 |
| C82U A145G C150U C169A U176C | 0.0136 |
| C82U A145G C150U C169A U176G | 0.00522 |
| C82U A145G C150U C169A U176A | 0.0158 |
| C82U A120U C169U U176A | 0.00362 |
| C82U A120U C169U U176G | 0.00164 |
| C82U A120U C169U U176C | 0.0045 |
| C82U A145C C150U U176C | 0.127 |
| C82U A145C C150U U176A | 0.114 |
| C82U A145C C150U U176G | 0.0408 |
| C82U A145C C150U C169U U176C | 0.00673 |
| C82U A145C C150U C169U U176G | 0.00478 |
| C82U A145C C150U C169U U176A | 0.0121 |
| C82U A120U C150G C169U U176A | 0.00334 |

| Variant | reverse-splicing fitness |
| --- | --- |
| C82U A120U C150G C169U U176G | 0.00244 |
| C82U A120U C150G C169U U176C | 0.00349 |
| C82U A145G C150U C169G U176C | 0.0172 |
| C82U A145G C150U C169G U176G | 0.00503 |
| C82U A145G C150U C169G U176A | 0.0129 |
| C82U A145G C169A U176G | 0.00411 |
| C82U A145G C169A U176A | 0.0178 |
| C82U A145G C169A U176C | 0.0258 |
| C82U A120U C150G C169U | 0.00386 |
| C82U A145C C150G C169A U176C | 0.00546 |
| C82U A145C C150G C169A U176A | 0.00717 |
| C82U A145C C150G C169A U176G | 0.0049 |
| C82U A145C C169G U176C | 0.00995 |
| C82U A145C C169G U176G | 0.00428 |
| C82U A145C C169G U176A | 0.0179 |
| C82U A145C C150G C169U U176C | 0.00785 |
| C82U A145C C150G C169U U176A | 0.00881 |
| C82U A145C C150G C169U U176G | 0.00486 |
| C82U A145C C150G U176C | 0.0583 |
| C82U A145C C150G U176A | 0.0431 |
| C82U A145C C150G U176G | 0.00905 |
| C82U A145G C150U C169G | 0.0102 |
| C82U A145G C150U C169U | 0.0153 |
| C82U A145G C150U C169A | 0.0113 |

| Variant | reverse-splicing fitness |
| --- | --- |
| C82U A145G C150U U176C | 0.372 |
| C82U A145G C150U U176G | 0.0868 |
| C82U A145G C150U U176A | 0.315 |
| C82U A145C C150A C169G U176C | 0.00995 |
| C82U A145C C150A C169G U176A | 0.0178 |
| C82U A145C C150A C169G U176G | 0.00485 |
| C82U A120U C150G U176G | 0.0022 |
| C82U A120U C150G U176C | 0.00788 |
| C82U A120U C150G U176A | 0.00531 |
| C82U A145G C150A C169U | 0.0093 |
| C82U A145G C150A C169A | 0.0109 |
| C82U A145G C150A C169G | 0.00784 |
| C82U A145C C150A C169U U176C | 0.00693 |
| C82U A145C C150A C169U U176G | 0.00503 |
| C82U A145C C150A C169U U176A | 0.0103 |
| C82U A145C C150A C169A U176C | 0.00505 |
| C82U A145C C150A C169A U176A | 0.0088 |
| C82U A145C C150A C169A U176G | 0.0047 |
| C82U A120U C169A U176C | 0.00216 |
| C82U A120U C169A U176G | 0.00126 |
| C82U A120U C169A U176A | 0.00238 |
| C82U A145G | 0.63 |
| C82U A145C | 0.598 |
